Experimental data reported in patent US20210275641A1 (SYNTHEKINE, published 2021).

B1: VEH (ligand)
cytokine: APTSSSTKKTQLQLEHLVLDLEMILNGINNYKNPKLTRMLTFKFYMPKKATELKHLQCLEEELKPLEEVLNLAQSKNFHLRPRDLISNINVIVLELKGSETTFMCEYADETATIVEFLNRWITFCHSIISTLT
B2: IEH (ligand)
cytokine: APTSSSTKKTQLQLEHLILDLEMILNGINNYKNPKLTRMLTFKFYMPKKATELKHLQCLEEELKPLEEVLNLAQSKNFHLRPRDLISNINVIVLELKGSETTFMCEYADETATIVEFLNRWITFCHSIISTLT
B3: NEH (ligand)
cytokine: APTSSSTKKTQLQLEHLNLDLEMILNGINNYKNPKLTRMLTFKFYMPKKATELKHLQCLEEELKPLEEVLNLAQSKNFHLRPRDLISNINVIVLELKGSETTFMCEYADETATIVEFLNRWITFCHSIISTLT
B4: DEH (ligand)
cytokine: APTSSSTKKTQLQLEHLDLDLEMILNGINNYKNPKLTRMLTFKFYMPKKATELKHLQCLEEELKPLEEVLNLAQSKNFHLRPRDLISNINVIVLELKGSETTFMCEYADETATIVEFLNRWITFCHSIISTLT
B5: HEH (ligand)
cytokine: APTSSSTKKTQLQLEHLHLDLEMILNGINNYKNPKLTRMLTFKFYMPKKATELKHLQCLEEELKPLEEVLNLAQSKNFHLRPRDLISNINVIVLELKGSETTFMCEYADETATIVEFLNRWITFCHSIISTLT
B6: YEH (ligand)
cytokine: APTSSSTKKTQLQLEHLYLDLEMILNGINNYKNPKLTRMLTFKFYMPKKATELKHLQCLEEELKPLEEVLNLAQSKNFHLRPRDLISNINVIVLELKGSETTFMCEYADETATIVEFLNRWITFCHSIISTLT

molecular target: T1, human high affinity trimeric IL-2 receptor (CD25/CD122/CD132) (human, UniProt P01589 22-272; P14784 27-551; P31785 23-369); experiment: cell-based or functional assay
T1 sequence 1: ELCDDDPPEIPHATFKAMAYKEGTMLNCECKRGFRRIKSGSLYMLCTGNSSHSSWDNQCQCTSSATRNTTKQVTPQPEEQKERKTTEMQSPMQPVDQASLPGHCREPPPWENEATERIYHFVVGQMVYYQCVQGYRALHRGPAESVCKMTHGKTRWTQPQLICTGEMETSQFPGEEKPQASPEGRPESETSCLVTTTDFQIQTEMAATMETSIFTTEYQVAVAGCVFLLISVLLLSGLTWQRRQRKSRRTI
T1 sequence 2: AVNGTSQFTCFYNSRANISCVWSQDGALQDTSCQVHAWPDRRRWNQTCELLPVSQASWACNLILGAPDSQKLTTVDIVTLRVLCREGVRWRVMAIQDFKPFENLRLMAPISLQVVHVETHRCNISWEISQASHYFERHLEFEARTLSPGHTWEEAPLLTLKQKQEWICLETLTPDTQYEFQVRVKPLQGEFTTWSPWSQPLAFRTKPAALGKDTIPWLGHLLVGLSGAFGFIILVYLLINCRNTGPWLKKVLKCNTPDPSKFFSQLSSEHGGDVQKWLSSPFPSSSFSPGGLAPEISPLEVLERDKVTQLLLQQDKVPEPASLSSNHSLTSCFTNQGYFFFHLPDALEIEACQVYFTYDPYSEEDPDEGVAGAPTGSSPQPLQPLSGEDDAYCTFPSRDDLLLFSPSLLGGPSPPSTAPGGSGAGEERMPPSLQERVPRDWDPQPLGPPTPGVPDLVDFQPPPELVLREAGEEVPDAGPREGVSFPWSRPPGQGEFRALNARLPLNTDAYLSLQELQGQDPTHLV
T1 sequence 3: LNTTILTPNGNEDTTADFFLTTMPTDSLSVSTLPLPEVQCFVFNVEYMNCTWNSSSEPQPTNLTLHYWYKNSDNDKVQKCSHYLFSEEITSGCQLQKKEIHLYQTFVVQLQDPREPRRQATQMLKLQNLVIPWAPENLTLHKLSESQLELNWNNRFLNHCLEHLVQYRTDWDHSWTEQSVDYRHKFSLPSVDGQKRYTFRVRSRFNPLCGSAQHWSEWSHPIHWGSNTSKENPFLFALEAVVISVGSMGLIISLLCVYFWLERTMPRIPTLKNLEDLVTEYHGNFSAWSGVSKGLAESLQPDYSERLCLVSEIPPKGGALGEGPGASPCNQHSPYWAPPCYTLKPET

Binder | pSTAT5 ratio YT CD25/YT, dilution factor 2, upper table | pSTAT5 ratio YT CD25/YT, dilution factor 4, upper table | pSTAT5 ratio YT CD25/YT, dilution factor 8, upper table | pSTAT5 ratio YT CD25/YT, dilution factor 16, upper table | pSTAT5 ratio YT CD25/YT, dilution factor 32, upper table | pSTAT5 ratio YT CD25/YT, dilution factor 64, upper table | pSTAT5 ratio YT CD25/YT, dilution factor 128, upper table | pSTAT5 ratio YT CD25/YT, dilution factor 2, lower table | pSTAT5 ratio YT CD25/YT, dilution factor 4, lower table | pSTAT5 ratio YT CD25/YT, dilution factor 8, lower table
B1 | 1.2 | 1.6 | 2.4 | 3.6 | 6.3 | 10.9 | 14.8 |  |  | 
B2 | 1.2 | 1.4 | 1.6 | 2.6 | 4.6 | 7.2 | 10.9 |  |  | 
B3 |  |  |  |  |  |  |  | 0.9 | 1.1 | 1.8
B4 |  |  |  |  |  |  |  | 0.9 | 2 | 4.2
B5 |  |  |  |  |  |  |  | 1 | 1.2 | 1.8
B6 |  |  |  |  |  |  |  | 0.8 | 0.9 | 1

same assay, conditions: not given

Binder | pSTAT5 ratio YT CD25/YT, dilution factor 16, lower table | pSTAT5 ratio YT CD25/YT, dilution factor 32, lower table | pSTAT5 ratio YT CD25/YT, dilution factor 64, lower table | pSTAT5 ratio YT CD25/YT, dilution factor 128, lower table
B3 | 2.6 | 5.1 | 7.9 | 11.9
B4 | 7.5 | 8.2 | 10.6 | 9.9
B5 | 3.1 | 5.6 | 8.3 | 11.8
B6 | 1.2 | 1.5 | 2 | 3.4
